Results taken from article PMC2941195.

Substrate: C=CC(C)(C)c1[nH]c2cc(O)ccc2c1C[C@@H]1NC(=O)[C@@H]2CCCN2C1=O
Test: Michaelis-Menten kinetics, HPLC product detection
Assay type: biochemical, Aspergillus sp. MF297-2
Settings: normal prenylation at C-7 with DMAPP, 5 mM MgCl2, 50 mM Tris-Cl pH 7.5

B1: NotC (Aspergillus sp. MF297-2) (protein)
chain: MAIEEKSTSAEPGPYDALSRFSSLTGEDDRKWWEHTGPVLEKVMRDSGYELQSQYIYLYFVQQHLIPYLGKFPTRGQDDHRWQSNLTPYKVPYELSWNVSHKVVRISWDPVCDASGTENDAFNKKAIHDCTRQLAELDSTVILDRYRLLHKDLVITDEEEQQLLRRDVLPKSGRGQHNLAVDFQEGGITLKVYFYPYMKFLATGTPIEELFFSAIEKLRIADIDEAVGMLKCFLSPKSDDGKPSVDEKVFPSLLACDLCDPSKSRIKYYVIDKWVKWERIANLWTIGGRRLEDPYCAKGLALLKELWDLLAIPEGDRGDIWPNLVLGQPPTHLMTTIANYTLSPASRFPEPQVYLTTFGLNDMAIIDALTAFYERVGFTDMAKSYKKNVQSYYPNLDLNQTNWVHEAVSFSYRNSKPYLSVYYSPF
With B1 the Km was 2.64 ± 0.33 µM and the kcat was 1.01 ± 0.0317 s⁻¹.
